Patent US20240002436A1, “RESPIRATORY TREATMENTS” (Hofseth Biocare ASA, priority 2020, published 2024)

How the values were obtained:
[1] = test system: Allergic Human Purified Peripheral Blood Eosinophils; test: Percent eosinophil apoptosis (Annexin V-FITC, flow cytometry) in allergic human purified peripheral blood eosinophils; type: cell-based; settings: 3 μg/mL ApoA-IV (positive control), IL-5 (50 pM), 18 hr incubation
Method: Percent Eosinophil Apoptosis in Allergic Human Purified Peripheral Blood Eosinophils
Aliquots were removed after 18 hr incubation, washed twice in PBS, and resuspended in binding buffer. The eosinophil cells were stained using the Annexin V-FITC Apoptosis Detection Kit I, (Sigma Aldrich) and immediately analyzed by flow cytometry. Each sample was acquired for 1 min, and the total number of eosinophils gated on a forward scatter/side scatter plot and the percentage of live cells (annexin Vneg) and apoptotic cells (annexin Vpos) was recorded.

CD11b on PMNL surface = test: CD11b change on PMNL surface stimulated by CCL11 (flow cytometry); type: cell-based; settings: 3 μg/mL ApoA-IV (positive control), 30 min pretreatment, 2.5 nm CCL11 30 min at 37° C., CD16 negative cells
Method: CD11b Change (100% as Baseline) on PMNL Surface Stimulated by 2.5 nm CCL11
(PMNL) cells were pretreated with 3 μg/mL ApoA-IV (positive control), 1 μg/mL test compounds, and formulation vehicle (negative control) for 30 minutes and incubated with serial dilutions of CCL 11 for 30 minutes at 37° C. Samples were stained with anti-CD16-PE-Cy5 and anti-CD11b-PE (ICRF44) antibodies. Eosinophils were identified as CD16 negative cells. CD11b upregulation was analyzed by flow cytometry and reported above. (Standard deviation in the assay is +/−2%). See results in Table 2 below.

B1: ApoA-IV: positive control in the eosinophil apoptosis and CD11b assays, used at 3 μg/mL (protein, UniProt P06727 21-396, looked up)
Apolipoprotein A-IV: EVSADQVATVMWDYFSQLSNNAKEAVEHLQKSELTQQLNALFQDKLGEVNTYAGDLQKKLVPFATELHERLAKDSEKLKEEIGKELEELRARLLPHANEVSQKIGDNLRELQQRLEPYADQLRTQVSTQAEQLRRQLTPYAQRMERVLRENADSLQASLRPHADELKAKIDQNVEELKGRLTPYADEFKVKIDQTVEELRRSLAPYAQDTQEKLNHQLEGLTFQMKKNAEELKARISASAEELRQRLAPLAEDVRGNLRGNTEGLQKSLAELGGHLDQQVEEFRRRVEPYGENFNKALVQQMEQLRQKLGPHAGDVEGHLSFLEKDLRDKVNSFFSTFKEKESQDKTLSLPELEQQQEQQQEQQQEQVQMLAPLES
Total percent live and apoptotic EO cells [1]: 92.4% | Percent live EO cells ([1]; annexin Vneg): 29.3% | Percent of apoptotic EO cells ([1]; annexin Vpos): 63.1% | CD11b change (100% as baseline) (CD11b on PMNL surface): 121%
